Test results reported in patent publication US20120240246A1, “Variant Calpastatins and Variant Calpains for Modulating the Activity or Stability of Calpain” (St. Jude Children's Research Hospital, priority 2009, published 2012).
Numbering of substitutions follows the chain as printed. In names and notes the source's numbering stands. Each block holds one molecule with its values, some of them ahead of it.

Legend:
[1] = target: protease core from µ-calpain (µI-II) (UniProt P97571); experiment: cell-based or functional assay
[2] = target: calpastatin repeat 1 K176Δ mutant (UniProt P27321)
[3] = target: calpastatin repeat 1 K176/E177Δ mutant (UniProt P27321)
[4] = target: calpastatin repeat 1 E177Δ mutant (UniProt P27321)
m-calpain [5] = target: T1, m-calpain (Rattus norvegicus, UniProt Q07009); experiment: Calpastatin inhibition assay, hydrolysis by m-calpain; type: biochemical; settings: for IC50 values toward m-calpain (in words): derived from initial rate analysis
T1 construct: diminishing activity >1,000-fold compared to full-length m-calpain; His6 (C); made in house; host or cells: E. coli
T1 sequence (Q07009 1-700): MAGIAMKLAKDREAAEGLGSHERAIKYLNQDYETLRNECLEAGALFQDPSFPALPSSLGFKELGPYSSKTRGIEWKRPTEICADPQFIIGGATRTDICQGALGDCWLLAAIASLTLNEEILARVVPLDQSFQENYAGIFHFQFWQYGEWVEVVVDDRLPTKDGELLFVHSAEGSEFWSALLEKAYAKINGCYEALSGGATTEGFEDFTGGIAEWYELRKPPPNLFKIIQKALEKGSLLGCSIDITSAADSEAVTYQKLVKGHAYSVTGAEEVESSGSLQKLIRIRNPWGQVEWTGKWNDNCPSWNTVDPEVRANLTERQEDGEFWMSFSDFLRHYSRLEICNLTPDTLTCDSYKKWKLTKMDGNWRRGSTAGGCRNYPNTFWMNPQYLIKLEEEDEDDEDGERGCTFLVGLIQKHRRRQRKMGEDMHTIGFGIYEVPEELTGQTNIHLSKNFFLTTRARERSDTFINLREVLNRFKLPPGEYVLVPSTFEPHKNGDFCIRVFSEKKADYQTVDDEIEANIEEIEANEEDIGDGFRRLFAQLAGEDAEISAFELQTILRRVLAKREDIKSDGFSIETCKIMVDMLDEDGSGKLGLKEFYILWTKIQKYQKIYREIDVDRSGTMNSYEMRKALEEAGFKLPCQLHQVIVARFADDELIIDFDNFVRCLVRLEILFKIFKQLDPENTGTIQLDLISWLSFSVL
T1 sequence (Q64537 87-270 partner limits assumed): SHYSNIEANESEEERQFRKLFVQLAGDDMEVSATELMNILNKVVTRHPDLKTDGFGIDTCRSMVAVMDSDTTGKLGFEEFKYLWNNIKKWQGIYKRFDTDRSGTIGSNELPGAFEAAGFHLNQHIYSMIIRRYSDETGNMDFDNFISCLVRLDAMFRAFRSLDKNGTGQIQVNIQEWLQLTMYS
Procedure: (§1) Calpastatin Inhibition Assays. Hydrolysis assays by m-calpain (1 nM or 20 nM), m-calpain mutants (1 nM) and μI-II (1.25-2.5 μM) were performed in 100-μl volumes containing 50 mM HEPES (pH 7.5), 200 mM NaCl, 1 mM DTT, various concentrations of substrate (0-1.5mM SLY-MCA (Sigma) or 0-50 μg/ml BODIPY-casein (Invitrogen)) and increasing inhibitor concentrations: 0-50 nM wild-type or mutant full-length calpastatin, fragments AB and BC, 0-20 μM peptide B1 for m-calpain, and 0-750 μM peptide B1 for μI-II. Duplicates or triplicates were performed for each condition in 96-well plates using a Molecular Devices microplate reader.

[6] = target: T2, μI-II (protease core from μ-calpain) (Rattus norvegicus, UniProt P97571); experiment: Calpastatin inhibition assay, hydrolysis by μI-II; type: biochemical; settings: mean ±s.e.m.
T2 construct: the protease core from μ-calpain (μI-II) were expressed in E. coli; made in house; host or cells: E. coli
Procedure: as §1

calpain = settings: human sequence; Betts & Anagli (2004); cited from earlier work
[7] = target: m-calpain (catalytically active heterodimer used in hydrolysis and autolysis assays) (rat), Q07009; experiment: cell-based or functional assay
[8] = target: protease core from µ-calpain (µI-II) (UniProt P97571 29-356); experiment: cell-based or functional assay
heterodimeric calpains = settings: Wendt, et al. (2004); cited from earlier work
m-calpain [9] = experiment: Hydrolysis activity of m-calpain mutants at the DI-II-DIII interface; type: biochemical, rat; settings: Ala substitution in DIII of 80 kDa subunit
Procedure: as §1

Sequence of protease core from µ-calpain (µI-II) (UniProt P97571) (P97571 29-356 limits assumed): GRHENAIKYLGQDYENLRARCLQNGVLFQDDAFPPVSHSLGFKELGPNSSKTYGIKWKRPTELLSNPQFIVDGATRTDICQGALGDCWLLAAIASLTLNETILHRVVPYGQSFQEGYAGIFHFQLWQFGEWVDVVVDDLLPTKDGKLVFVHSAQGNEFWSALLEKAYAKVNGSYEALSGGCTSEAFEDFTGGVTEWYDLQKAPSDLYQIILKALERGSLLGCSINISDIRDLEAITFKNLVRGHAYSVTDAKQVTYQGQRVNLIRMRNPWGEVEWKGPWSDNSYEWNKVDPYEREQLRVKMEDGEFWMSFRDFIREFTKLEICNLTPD
T2 sequence (P97571 55-354 limits assumed): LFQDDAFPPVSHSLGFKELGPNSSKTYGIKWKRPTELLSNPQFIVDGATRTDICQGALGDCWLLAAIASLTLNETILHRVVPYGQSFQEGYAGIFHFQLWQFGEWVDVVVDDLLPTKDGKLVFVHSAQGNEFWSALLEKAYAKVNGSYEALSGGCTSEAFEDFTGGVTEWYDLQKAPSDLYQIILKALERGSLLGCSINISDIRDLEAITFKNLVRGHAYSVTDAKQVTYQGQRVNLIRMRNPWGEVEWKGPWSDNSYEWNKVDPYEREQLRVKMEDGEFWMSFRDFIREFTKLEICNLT
Sequence of protease core from µ-calpain (µI-II) (UniProt P97571 29-356) (P97571 29-356 limits assumed): as the sequence (P97571 29-356 limits assumed) above
Sequence of calpastatin repeat 1 K176Δ mutant (P27321 whole entry, looked up, stated change not applied): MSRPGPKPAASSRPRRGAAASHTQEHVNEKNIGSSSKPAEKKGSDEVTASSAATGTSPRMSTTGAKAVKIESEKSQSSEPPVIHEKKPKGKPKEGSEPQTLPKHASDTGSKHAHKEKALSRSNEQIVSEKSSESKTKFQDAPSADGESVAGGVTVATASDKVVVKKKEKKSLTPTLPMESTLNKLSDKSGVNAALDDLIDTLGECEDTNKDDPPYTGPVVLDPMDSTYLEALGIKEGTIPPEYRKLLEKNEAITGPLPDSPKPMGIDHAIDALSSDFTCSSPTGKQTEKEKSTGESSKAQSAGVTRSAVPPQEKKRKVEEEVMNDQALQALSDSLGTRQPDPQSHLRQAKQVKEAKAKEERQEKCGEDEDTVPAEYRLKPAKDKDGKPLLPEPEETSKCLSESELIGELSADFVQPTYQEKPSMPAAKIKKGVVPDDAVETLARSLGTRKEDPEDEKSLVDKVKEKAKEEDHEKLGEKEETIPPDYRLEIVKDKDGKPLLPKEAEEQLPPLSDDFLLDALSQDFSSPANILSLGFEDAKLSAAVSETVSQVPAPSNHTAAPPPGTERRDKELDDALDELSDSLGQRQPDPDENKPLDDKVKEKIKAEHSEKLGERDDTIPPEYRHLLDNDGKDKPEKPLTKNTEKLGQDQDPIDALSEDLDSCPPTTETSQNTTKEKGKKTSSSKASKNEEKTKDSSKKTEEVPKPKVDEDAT
Sequence of calpastatin repeat 1 K176/E177Δ mutant (P27321 whole entry, looked up, stated change not applied): as above
Sequence of calpastatin repeat 1 E177Δ mutant (P27321 whole entry, looked up, stated change not applied): as above

Molecule: m-calpain (catalytically active heterodimer used in hydrolysis and autolysis assays)
- autolysis / proteolysis of the complex (SDS-PAGE) [2]: all mutants succumbed to proteolysis within the kink
- autolysis / proteolysis of the complex (SDS-PAGE) [3]: all mutants succumbed to proteolysis within the kink
- autolysis / proteolysis of the complex (SDS-PAGE) [4]: all mutants succumbed to proteolysis within the kink

Molecule: AB: 57-residue calpastatin repeat 1 fragment with regions A and B, ending at Lys190 (SKTKFQDAPSADGESVAGGVTVATASDKVVVKKKEKKSLTPTLPMESTLNKLSDKSG)
- IC50 values toward m-calpain (in words) (m-calpain [5]): low nanomolar
- IC50 [6]: 80.5 ± 10.2 µM

Molecule: Asp^163-Gly^174: N-terminal peptide of the 27-residue region B peptide, human sequence (Betts & Anagli 2004) (TLGGPEETEEEN; UniProt P20810 163-174, looked up, fragment)
- calpain inhibition when the intact 27-residue peptide is replaced by N- and C-terminal peptides (calpain): abolished

B3: Peptide B1 Ac-ALGIKEGTIPPEYRKLLE-NH2 (peptide)
peptide: Ac-ALGIKEGTIPPEYRKLLE-NH2
- IC50 of inhibition of µI-II activity [8]: 24.5 µM

B5: R417A: rat m-calpain with R417A substitution in DIII of the 80 kDa subunit (protein, UniProt Q07009 20-700; Q64537 1-270, looked up, variant R417A)
Calpain-2 catalytic subunit: SHERAIKYLNQDYETLRNECLEAGALFQDPSFPALPSSLGFKELGPYSSKTRGIEWKRPTEICADPQFIIGGATRTDICQGALGDCWLLAAIASLTLNEEILARVVPLDQSFQENYAGIFHFQFWQYGEWVEVVVDDRLPTKDGELLFVHSAEGSEFWSALLEKAYAKINGCYEALSGGATTEGFEDFTGGIAEWYELRKPPPNLFKIIQKALEKGSLLGCSIDITSAADSEAVTYQKLVKGHAYSVTGAEEVESSGSLQKLIRIRNPWGQVEWTGKWNDNCPSWNTVDPEVRANLTERQEDGEFWMSFSDFLRHYSRLEICNLTPDTLTCDSYKKWKLTKMDGNWRRGSTAGGCRNYPNTFWMNPQYLIKLEEEDEDDEDGERGCTFLVGLIQKHRARQRKMGEDMHTIGFGIYEVPEELTGQTNIHLSKNFFLTTRARERSDTFINLREVLNRFKLPPGEYVLVPSTFEPHKNGDFCIRVFSEKKADYQTVDDEIEANIEEIEANEEDIGDGFRRLFAQLAGEDAEISAFELQTILRRVLAKREDIKSDGFSIETCKIMVDMLDEDGSGKLGLKEFYILWTKIQKYQKIYREIDVDRSGTMNSYEMRKALEEAGFKLPCQLHQVIVARFADDELIIDFDNFVRCLVRLEILFKIFKQLDPENTGTIQLDLISWLSFSVL
Calpain small subunit 1: MFLVNSFLKGGGGGGGGGGLGGGLGNVLGGLISGAAGGGGGGGGGGGMGLGGGGGGGGTAMRILGGVISAISEAAAQYNPEPPPPRSHYSNIEANESEEERQFRKLFVQLAGDDMEVSATELMNILNKVVTRHPDLKTDGFGIDTCRSMVAVMDSDTTGKLGFEEFKYLWNNIKKWQGIYKRFDTDRSGTIGSNELPGAFEAAGFHLNQHIYSMIIRRYSDETGNMDFDNFISCLVRLDAMFRAFRSLDKNGTGQIQVNIQEWLQLTMYS
- m-calpain activity after substitution (fraction of wild type) (m-calpain [9]): one-half

B6: R469A: rat m-calpain with R469A substitution in DIII of the 80 kDa subunit (protein, UniProt Q07009 20-700; Q64537 1-270, looked up, variant R469A)
Calpain-2 catalytic subunit: B5 Calpain-2 catalytic subunit with A398R, R450A
Calpain small subunit 1: B5 Calpain small subunit 1
- Ca2+ requirement (m-calpain [9]): doubled
- decrease in m-calpain activity (m-calpain [9]): > 60 fold

B7: R420A: rat m-calpain with R420A substitution in DIII of the 80 kDa subunit (protein, UniProt Q07009 20-700; Q64537 1-270, looked up, variant R420A)
Calpain-2 catalytic subunit: B5 Calpain-2 catalytic subunit with A398R, R401A
Calpain small subunit 1: B5 Calpain small subunit 1
- Ca2+ requirement (m-calpain [9]): doubled
- m-calpain activity after substitution (fraction of wild type) (m-calpain [9]): one-quarter

Continued, in another order:

- IC50 of inhibition of µI-II activity [1]: 122 µM
Molecule: calpastatin repeat 1 fragment BC (57 residues, Asp163-Thr219) (from UniProt P27321 163-219) (peptide)

- IC50 of inhibition of µI-II activity [1]: 155 µM
Molecule: rat calpastatin inhibitory repeat 1, short construct Ala134-Thr219 (86 residues) (from UniProt P27321 134-219)

- IC50 (m-calpain [5]; mean ±s.e.m.): 0.41 ± 0.08 µM
Molecule: Ac-ALGIKEGTIPPEYRKLLE-NH2 [peptide B1, Ac-ALGIKEGTIPPEYRKLLE-NH2]

- IC50 of inhibition of µI-II activity [1]: 80.5 µM
Molecule: calpastatin repeat 1 fragment AB (57 residues, ending at Lys190) (from UniProt P27321 134-190) (peptide)

- IC50 of inhibition of substrate hydrolysis by m-calpain [7]: 0.41 µM
B1: Peptide B1 Ac-…-NH2 (peptide)
peptide: Ac-ALGIKEGTIPPEYRKLLE-NH2

- IC50 values toward m-calpain (in words) (m-calpain [5]): low nanomolar
- IC50 [6]: 155 ± 16.3 µM
B2: repeat 1: 86-residue rat calpastatin inhibitory repeat 1 (residues 134-219), expressed in E. coli (protein, UniProt P27321 134-219, looked up, fragment)
chain: SKTKFQDAPSADGESVAGGVTVATASDKVVVKKKEKKSLTPTLPMESTLNKLSDKSGVNAALDDLIDTLGECEDTNKDDPPYTGPV
modifications: inhibitory repeat 1

- inhibition of calpain (m-calpain [5]; FIG. 7 legend, concerted binding to peripheral domains and active site): low-nanomolar
B4: calpastatin: 72 kDa endogenous calpain inhibitor with L domain and four 15-kDa inhibitory repeats (protein, listed as Rattus norvegicus)
chain: MESTLNKLSDKSGVNAALDDLIDTLGECEDTNKDDPPYTGPVVLDPMDSTYLEALGIKEGTIPPEYRKLLEKNEAITGPLPDSPKPMGIDHAIDALSSDFTCSSPTGKQTEKEKSTGESS
- affinity of inhibition of heterodimeric calpains (heterodimeric calpains): nanomolar
